± gives the uncertainty stated by the source.
Experiment: self-splicing fitness, log relative to wild type (ln ratio); higher = more splicing; Tetrahymena group I intron in knt gene, E. coli kanamycin selection, DiMSum; sequences stand for … in CUCUCU…GGAGGGAAAAGUUAUCAGGCAUGCACCUGGUAGCUAGUCUUUAAACCAAUAGAUUGCAUCGGUUUAAAAGGCAAGACCGUCAAAUUGCGGGAAAGGGGUCAACAGCCGUUCAGUACCAAGUCUCAGGGGAAACUUUGAGAUGGCCUUGCAAAGGGUAUGGUAAUAAGCUGACGGACAUGGUCCUAACCACGCAGCCAAGUCCUAAGUCAACAGAUCUUCUGUUGAUAUGGAUGCAGUUCACAGACUAAAUGUCGGUCGGGGAAGAUGUAUUCUUCUCAUAAGAUAUAGUCGGACCUCUCCUUAAUGGGAGCUAGCGGAUGAAGUGAUGCAACACUGGAGCCGCUGGGAACUAAUUUGUAUGCGAAAGUAUAUUGAUUAGUUUUGGAGUACUCGUGGUCG
Procedure, shortened: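 Six replicate transformations of E. coli BL21(DE3) with a pET-22b(+) library were grown overnight at 37°C or 30°C. The library randomised all eight P1ex-region intron nucleotides, the intron lying in the knt kanamycin-resistance gene, and plates were LB agar with or without 25 μg/mL kanamycin plus 100 μg/mL carbenicillin, 50 μM IPTG and 0.2% rhamnose. Pooled colonies were amplicon-sequenced on an Illumina HiSeq 2500, and fitness is the DiMSum error-weighted combination of wild-type-normalised replicate fold changes, kanamycin versus none.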

Sequence | self-splicing fitness (ln) (30 °C) | self-splicing fitness (ln) (37 °C)
AGCGAGCAAUAUUACGCUUA | -3.13 ± 0.27 | 0.422 ± 0.17
AGCGAGCAAUAUUACGGACA | -2.53 ± 0.37 | -2.94 ± 0.34
AGCGAGCAAUAUUACGGACG | – | -1.9 ± 0.36
AGCGAGCAAUAUUACGGCUU | -2.59 ± 0.12 | -2.02 ± 0.21
AGCGAGCAAUAUUACGGGUC | -2.01 ± 0.13 | -2.66 ± 0.25
AGCGAGCAAUAUUACGGUAU | -3.18 ± 0.16 | -2.54 ± 0.22
AGCGAGCAAUAUUACGGUGG | -2.67 ± 0.15 | -2.11 ± 0.25
AGCGAGCAAUAUUACGUAAC | -3.79 ± 0.29 | -1.46 ± 0.24
AGCGAGCAAUAUUACGUAGA | -3.17 ± 0.24 | -2.85 ± 0.29
AGCGAGCAAUAUUACGUGAG | -4.49 ± 0.27 | -2.79 ± 0.19
AGCGAGCAAUAUUACGUGCC | -3.37 ± 0.41 | -0.439 ± 0.22
AGCGAGCAAUAUUACGUGGG | -2.35 ± 0.27 | -3.19 ± 0.35
AGCGAGCAAUAUUACGUGUC | -3.1 ± 0.24 | -2.85 ± 0.22
AGCGAGCAAUAUUACGUUUU | -3.47 ± 0.28 | -1.66 ± 0.22
AGCUAGCAAUAUUACGAAAG | -3.5 ± 0.19 | -2.77 ± 0.25
AGCUAGCAAUAUUACGAACA | -2.24 ± 0.23 | -0.832 ± 0.2
AGCUAGCAAUAUUACGAAUG | -2.09 ± 0.17 | -2.27 ± 0.29
AGCUAGCAAUAUUACGACCU | 0.703 ± 0.17 | -0.166 ± 0.18
AGCUAGCAAUAUUACGACUG | -0.901 ± 0.072 | -0.941 ± 0.12
AGCUAGCAAUAUUACGCAAC | -3.6 ± 0.35 | -1.86 ± 0.32
AGCUAGCAAUAUUACGCACC | -0.833 ± 0.15 | -0.409 ± 0.19
AGCUAGCAAUAUUACGCACU | -1.19 ± 0.1 | -0.466 ± 0.13
AGCUAGCAAUAUUACGCCAC | -3.18 ± 0.32 | -2.45 ± 0.42
AGCUAGCAAUAUUACGCGGU | -4.02 ± 0.27 | -1.71 ± 0.13

Sequence | self-splicing fitness (ln) (30 °C) | self-splicing fitness (ln) (37 °C)
AGCUAGCAAUAUUACGCGUU | -2.62 ± 0.091 | -2.11 ± 0.12
AGCUAGCAAUAUUACGGAAC | -2.7 ± 0.2 | -2.38 ± 0.24
AGCUAGCAAUAUUACGUCCG | -1.65 ± 0.23 | -0.915 ± 0.21
AGCUAGCAAUAUUACGUGGA | -3.53 ± 0.2 | -2.04 ± 0.14
AGCUAGCAAUAUUACGUGUG | -2.2 ± 0.06 | -1.7 ± 0.079
AGGAAGCAAUAUUACGACUC | -0.644 ± 0.3 | -0.886 ± 0.45
AGGAAGCAAUAUUACGAGGU | -3.85 ± 0.34 | -2.97 ± 0.24
AGGAAGCAAUAUUACGAUUG | -3.96 ± 0.36 | -3.3 ± 0.28
AGGAAGCAAUAUUACGCACC | -1.52 ± 0.16 | 0.0459 ± 0.16
AGGAAGCAAUAUUACGCCCA | -0.363 ± 0.42 | 1.47 ± 0.39
AGGAAGCAAUAUUACGCGUA | -1.87 ± 0.15 | -0.669 ± 0.11
AGGAAGCAAUAUUACGCGUU | -2.55 ± 0.17 | -1.01 ± 0.17
AGGAAGCAAUAUUACGGAUA | – | -2.01 ± 0.21
AGGAAGCAAUAUUACGGCGU | -0.156 ± 0.1 | -0.118 ± 0.11
AGGAAGCAAUAUUACGGGAA | -2.67 ± 0.25 | -2.08 ± 0.26
AGGAAGCAAUAUUACGGGGA | -2.97 ± 0.2 | -2.38 ± 0.16
AGGAAGCAAUAUUACGGUAC | -3.99 ± 0.36 | -3.03 ± 0.25
AGGAAGCAAUAUUACGGUCC | -1.54 ± 0.23 | -1.05 ± 0.4
AGGAAGCAAUAUUACGGUCU | -0.784 ± 0.079 | 0.265 ± 0.11
AGGAAGCAAUAUUACGGUGC | -3.36 ± 0.21 | -2.51 ± 0.2
AGGAAGCAAUAUUACGGUUA | -0.766 ± 0.1 | -0.654 ± 0.1
AGGAAGCAAUAUUACGUAAC | -3.65 ± 0.3 | -2.18 ± 0.42
AGGAAGCAAUAUUACGUAAG | -1.39 ± 0.11 | -2.01 ± 0.17
AGGAAGCAAUAUUACGUCUC | -2.91 ± 0.18 | -1.48 ± 0.21

From the supplement of paper PMC7877785
